Measured values from patent US20140242080A1 (Hoffmann-La Roche, published 2014).

Columns and labels:
[1] = target: T1, human CEA expressed on tumor cells (LS-174T, A549-huCEA, MKN-45, MC38-huCEA, HPAFII, BxPC-3, ASPC-1) (human, UniProt P06731 35-685); experiment: cell-based or functional assay
T1 sequence (looked up): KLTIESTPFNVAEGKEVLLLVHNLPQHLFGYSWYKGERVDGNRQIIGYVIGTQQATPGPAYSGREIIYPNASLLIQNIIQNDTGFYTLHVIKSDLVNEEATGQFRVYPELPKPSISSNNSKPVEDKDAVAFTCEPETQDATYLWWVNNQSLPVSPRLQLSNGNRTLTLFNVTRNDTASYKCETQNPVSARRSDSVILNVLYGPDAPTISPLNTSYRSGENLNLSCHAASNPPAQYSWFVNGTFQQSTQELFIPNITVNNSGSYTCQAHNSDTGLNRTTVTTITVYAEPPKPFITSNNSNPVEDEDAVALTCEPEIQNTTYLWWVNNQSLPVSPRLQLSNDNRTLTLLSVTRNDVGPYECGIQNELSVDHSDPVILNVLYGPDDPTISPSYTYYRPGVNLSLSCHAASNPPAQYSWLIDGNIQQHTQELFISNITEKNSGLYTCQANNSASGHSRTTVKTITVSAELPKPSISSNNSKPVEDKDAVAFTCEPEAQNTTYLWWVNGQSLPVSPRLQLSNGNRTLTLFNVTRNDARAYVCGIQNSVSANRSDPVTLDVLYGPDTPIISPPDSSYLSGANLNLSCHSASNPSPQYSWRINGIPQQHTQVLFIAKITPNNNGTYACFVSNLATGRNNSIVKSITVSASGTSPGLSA

[2] = target: T2, human CD3 expressed on Jurkat cells (human, UniProt P07766 23-207); experiment: flow cytometry on Jurkat cells
T2 construct: CD3 complex on Jurkat T cells; also called CD3 on Jurkat cells; huCD3
T2 sequence (P07766 23-207 limits assumed): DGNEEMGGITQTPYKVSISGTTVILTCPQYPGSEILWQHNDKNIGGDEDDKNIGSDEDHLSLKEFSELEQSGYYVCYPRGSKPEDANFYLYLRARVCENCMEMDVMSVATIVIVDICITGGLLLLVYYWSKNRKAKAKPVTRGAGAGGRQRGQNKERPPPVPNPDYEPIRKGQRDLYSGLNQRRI
Description: Binding of the different bispecific constructs to CD3 on Jurkat cells (ATCC #TIB-152), and the respective tumor antigen on target cells, was determined by FACS. Briefly, cells were harvested, counted and checked for viability. 0.15-0.2 million cells per well (in PBS containing 0.1% BSA; 90 μl) were plated in a round-bottom 96-well plate and incubated with the indicated concentration of the bispecific constructs and corresponding IgG controls (10 μl) for 30 min at 4° C. […] After the incubation, cells were centrifuged (5 min, 350×g), washed with 150 μl PBS containing 0.1% BSA, resuspended and incubated for further 30 min at 4° C. with 12 μl/well of a FITC- or PE-conjugated secondary antibody. Bound constructs were detected using a FACSCantoII (Software FACS Diva). The “(scFv)₂” molecule was detected using a FITC-conjugated anti-His antibody (Lucerna, #RHIS-45F-Z). For all other molecules, a FITC- or PE-conjugated AffiniPure F(ab′)2 Fragment goat anti-human IgG Fcγ Fragment Specific (Jackson Immuno Research Lab #109-096-098/working solution 1:20, or #109-116-170/working solution 1:80, respectively) was used. Cells were washed by addition of 120 μl/well PBS containing 0.1% BSA and centrifugation at 350×g for 5 min. A second washing step was performed with 150 μl/well PBS containing 0.1% BSA. […] EC50 values were calculated using the GraphPad Prism software.
As a control, the equivalent maximum concentration of the corresponding IgGs and the background staining due to the labeled 2ndary antibody (goat anti-human FITC-conjugated AffiniPure F(ab′)2 Fragment, FcγFragment-specific, Jackson Immuno Research Lab #109-096-098) were assessed as well.

[3] = target: T3, hu-MCSP(D3 domain)-avi-his (human, UniProt Q6UVK1 1582-2224); experiment: SPR Biacore T200, 25 C; avidity: MCSP D3 captured via anti-Penta His, IgG as analyte
T3 construct: Recombinant D3 domain with avi and his tags; also called human MCSP(D3 domain)-avi-his; Human MCSP D3
T3 sequence: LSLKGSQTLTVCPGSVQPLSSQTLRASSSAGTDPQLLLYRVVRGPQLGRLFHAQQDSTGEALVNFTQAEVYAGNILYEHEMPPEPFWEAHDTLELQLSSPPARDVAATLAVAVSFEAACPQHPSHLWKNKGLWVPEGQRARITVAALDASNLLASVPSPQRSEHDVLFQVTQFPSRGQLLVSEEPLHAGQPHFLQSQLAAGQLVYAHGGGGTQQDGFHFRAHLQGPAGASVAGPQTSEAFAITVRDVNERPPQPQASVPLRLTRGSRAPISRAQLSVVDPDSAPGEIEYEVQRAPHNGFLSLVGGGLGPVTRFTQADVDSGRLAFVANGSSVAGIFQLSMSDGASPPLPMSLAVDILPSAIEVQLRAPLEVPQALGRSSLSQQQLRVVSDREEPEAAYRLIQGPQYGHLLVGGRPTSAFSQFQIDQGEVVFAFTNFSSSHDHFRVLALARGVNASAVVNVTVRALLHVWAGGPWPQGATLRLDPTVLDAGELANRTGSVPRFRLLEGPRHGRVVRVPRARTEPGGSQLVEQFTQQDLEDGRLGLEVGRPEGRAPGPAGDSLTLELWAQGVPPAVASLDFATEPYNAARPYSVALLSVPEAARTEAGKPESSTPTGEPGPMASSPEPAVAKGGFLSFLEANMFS
Description: (§1) For analyzing the avidity of the interaction of different anti-MCSP IgGs to human and cynomolgus MCSP D3 direct coupling of around 9,500 resonance units (RU) of the anti-Penta His antibody (Qiagen) was performed on a CM5 chip at pH 5.0 using the standard amine coupling kit (Biacore, Freiburg/Germany). Antigens were captured for 60 s at 30 nM with 10 μl/min respectively. IgGs were passed at a concentration of 0.0064-100 nM with a flowrate of 30 μl/min through the flow cells over 280 s. The dissociation was monitored for 180 s. Bulk refractive index differences were corrected for by subtracting the response obtained on reference flow cell. […] For affinity measurements IgGs were captured on a CM5 sensorchip surface with immobilized anti human Fc. Capture IgG was coupled to the sensorchip surface by direct immobilization of around 9,500 resonance units (RU) at pH 5.0 using the standard amine coupling kit (Biacore, Freiburg/Germany). IgGs are captured for 25 s at 10 nM with 30 μl/min. Human and cynomolgus MCSP D3 were passed at a concentration of 2-500 nM with a flowrate of 30 μl/min through the flow cells over 120 s. The dissociation was monitored for 60 s. […] Bulk refractive index differences were corrected for by subtracting the response obtained on reference flow cell.

cynomolgus MCSP D3 [4] = target: T4, cynomolgus MCSP D3 (cynomolgus, UniProt Q6UVK1 1582-2224 (human entry), limits assumed); experiment: as above
T4 construct: also called Cyno MCSP; cynomolgus homologue
T4 chain: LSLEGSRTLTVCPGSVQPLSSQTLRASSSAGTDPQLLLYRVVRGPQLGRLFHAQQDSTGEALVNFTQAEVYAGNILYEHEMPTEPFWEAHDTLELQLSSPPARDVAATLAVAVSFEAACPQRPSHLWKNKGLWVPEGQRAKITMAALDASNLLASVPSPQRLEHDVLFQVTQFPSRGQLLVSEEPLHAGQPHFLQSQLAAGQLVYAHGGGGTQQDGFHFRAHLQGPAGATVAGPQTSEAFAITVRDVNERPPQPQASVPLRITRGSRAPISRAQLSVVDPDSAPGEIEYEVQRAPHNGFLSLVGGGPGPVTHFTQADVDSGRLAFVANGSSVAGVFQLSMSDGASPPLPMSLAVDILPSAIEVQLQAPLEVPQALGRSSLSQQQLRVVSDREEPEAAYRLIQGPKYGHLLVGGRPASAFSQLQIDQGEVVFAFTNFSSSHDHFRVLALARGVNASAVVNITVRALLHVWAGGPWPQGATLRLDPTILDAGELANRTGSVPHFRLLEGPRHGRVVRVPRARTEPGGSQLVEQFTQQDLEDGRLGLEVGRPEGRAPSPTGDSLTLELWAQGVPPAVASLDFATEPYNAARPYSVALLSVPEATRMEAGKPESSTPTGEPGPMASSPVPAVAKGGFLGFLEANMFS
Description: as §1

[5] = target: T3, hu-MCSP(D3 domain)-avi-his; experiment: SPR ProteOn XPR36, 25 C; IgG captured via anti-human F(ab')2, MCSP D3 as analyte
cynomolgus MCSP D3 [6] = target: T4, cynomolgus MCSP D3; experiment: as above
[7] = target: T3, hu-MCSP(D3 domain)-avi-his; experiment: SPR Biacore T200, 25 C; affinity: IgG captured via anti-human Fc, MCSP D3 as analyte
Description: as §1

cynomolgus MCSP D3 [8] = target: T4, cynomolgus MCSP D3; experiment: as above
Description: as §1

[9] = target: T3, hu-MCSP(D3 domain)-avi-his; experiment: ratio of ProteOn IgG KD, parent M4-3/ML2 against variant
cynomolgus MCSP D3 [10] = target: T4, cynomolgus MCSP D3; experiment: as above

B1: 1 + 1 IgG-Crossfab light chain fusion (CH1A1A/V9) (anti-CEA/anti-huCD3) (bispecific antibody)
chain 1: DIQMTQSPSSLSASVGDRVTITCRASQDIRNYLNWYQQKPGKAPKLLIYYTSRLESGVPSRFSGSGSGTDYTLTISSLQPEDFATYYCQQGNTLPWTFGQGTKVEIKSSASTKGPSVFPLAPSSKSTSGGTAALGCLVKDYFPEPVTVSWNSGALTSGVHTFPAVLQSSGLYSLSSVVTVPSSSLGTQTYICNVNHKPSNTKVDKKVEPKSC
chain 2: DIQMTQSPSSLSASVGDRVTITCKASAAVGTYVAWYQQKPGKAPKLLIYSASYRKRGVPSRFSGSGSGTDFTLTISSLQPEDFATYYCHQYYTYPLFTFGQGTKLEIKRTVAAPSVFIFPPSDEQLKSGTASVVCLLNNFYPREAKVQWKVDNALQSGNSQESVTEQDSKDSTYSLSSTLTLSKADYEKHKVYACEVTHQGLSSPVTKSFNRGECGGGGSGGGGSGGGGSGGGGSEVQLVESGGGLVQPGGSLRLSCAASGYSFTGYTMNWVRQAPGKGLEWVALINPYKGVSTYNQKFKDRFTISVDKSKNTAYLQMNSLRAEDTAVYYCARSGYYGDSDWYFDVWGQGTLVTVSSASVAAPSVFIFPPSDEQLKSGTASVVCLLNNFYPREAKVQWKVDNALQSGNSQESVTEQDSKDSTYSLSSTLTLSKADYEKHKVYACEVTHQGLSSPVTKSFNRGEC
chain 3: not shown
chain 4: DKTHTCPPCPAPEAAGGPSVFLFPPKPKDTLMISRTPEVTCVVVDVSHEDPEVKFNWYVDGVEVHNAKTKPREEQYNSTYRVVSVLTVLHQDWLNGKEYKCKVSNKALGAPIEKTISKAKGQPREPQVCTLPPSRDELTKNQVSLSCAVKGFYPSDIAVEWESNGQPENNYKTTPPVLDSDGSFFLVSKLTVDKSRWQQGNVFSCSVMHEALHNHYTQKSLSLSPGK
notes: also called “1+1 IgG Crossfab light chain (LC) fusion”
In the case of B1, the “EC50 of T cell-mediated killing (LDH release), LS-174T cells, human PBMCs E:T 10:1, 28 h” value [1] is reported as 1.56 nM, the “EC50 of T cell-mediated killing (LDH release), MC38-huCEA cells, human PBMCs E:T 10:1, 24 h” value [1] is reported as ~3.2 nM and the “EC50 of T cell-mediated killing (LDH release), MKN-45 cells, human PBMCs E:T 10:1, 28 h” value [1] is reported as 213 pM. B1: binds [2].

B2: Parental M4-3/ML2 IgG (antibody, V domains shown)
VH: QVQLQESGPGLVKPSQTLSLTCTVSGGSITSGYYWNWIRQHPGKGLEWIGYITYDGSNNYNPSLKSRVTISRDTSKNQFSLKLSSVTAADTAVYYCADFDYWGQGTLVTVSS
VL: DIQMTQSPSSLSASVGDRVTITCRASQGIRNYLNWYQQKPGKAPKLLIYYTSSLHSGVPSRFSGSGSGTDFTLTISSLQPEDFATYYCQQYSKLPWTFGQGTKVEIK
notes: Human IgG1 format, from mammalian production; also called M4-3 ML2 (parental); anti-MCSP antibody M4-3/ML2
B2 was tested, and the Kd [3] was 9 pM, the Kd (cynomolgus MCSP D3 [4]) was 12.3 pM and the Kd [5] was 2 nM. For the same binder, the Kd (cynomolgus MCSP D3 [6]) was 2 nM, the Kd [7] was 8.6 nM and the Kd (cynomolgus MCSP D3 [8]) was 11.4 nM.

B3: M4-3(C1)/ML2(C5) IgG (antibody, V domains shown)
VH: QVQLQESGPGLVKPSQTLSLTCTVSGGSITSGYYWNWIRQHPGKGLEWIGYITFDGSNNYNPSLKSRVTISRDTSKNQFSLKLSSVTAADTAVYYCADFDYWGQGTLVTVSS
VL: DIQMTQSPSSLSASVGDRVTITCRASRGIREYLNWYQQKPGKAPKLLIYYTGSLHSGVPSRFSGSGSGTDFTLTISSLQPEDFATYYCQQYSELPWTFGQGTKVEIK
notes: Human IgG1
B3 showed a Kd [3] of 4.6 pM, a Kd (cynomolgus MCSP D3 [4]) of 4.4 pM and a Kd [5] of 0.2 nM. The Kd (cynomolgus MCSP D3 [6]) was 0.3 nM, the “Fold increase over parent” value [9] was 10 fold and the “Fold increase over parent” value (cynomolgus MCSP D3 [10]) was 6.7 fold. The Kd [7] was 1.8 nM and the Kd (cynomolgus MCSP D3 [8]) was 1.3 nM.

B4: M4-3(C1)/ML2(E10) IgG (antibody, V domains shown)
VH: QVQLQESGPGLVKPSQTLSLTCTVSGGSITSGYYWNWIRQHPGKGLEWIGYITFDGSNNYNPSLKSRVTISRDTSKNQFSLKLSSVTAADTAVYYCADFDYWGQGTLVTVSS
VL: DIQMTQSPSSLSASVGDRVTITCRASYGIRGYLNWYQQKPGKAPKLLIYYTSSLHSGVPSRFSGSGSGTDFTLTISSLQPEDFATYHCQQYSKLPWTFGQGTKVEIK
notes: Human IgG1
B4 showed a Kd [3] of 6.3 pM, a Kd (cynomolgus MCSP D3 [4]) of 4.4 pM and a Kd [5] of 0.5 nM. For the same binder, the Kd (cynomolgus MCSP D3 [6]) was 0.6 nM, the “Fold increase over parent” value [9] was 4 fold and the “Fold increase over parent” value (cynomolgus MCSP D3 [10]) was 3.3 fold. It also gave a Kd [7] of 4.6 nM and a Kd (cynomolgus MCSP D3 [8]) of 3.8 nM.
